Reference: publication PMC11661148

Biological target: Gal4-SNAP-VP16 labeled with SNAP-Surface-649 (S. cerevisiae | herpes simplex virus) (UniProt P04386)
Assay: colocalization single-molecule spectroscopy

Mediator complex with Med7-HA-SNAP labeled with SNAP-Surface-549 (from UniProt Q08278 1-222)
duration of individual binding events (at 10 nM Gal4-VP16^649): 1 s
